Assay results: paper PMC10397247

What was measured:
4H348-bH = biological target: T1, 4H348-bH; assay: two-hybrid library CCNG1;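 also: natural log of median RNA to DNA barcode read ratio; higher means stronger binding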
T1 chain: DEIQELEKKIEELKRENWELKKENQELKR

4H40-bH = biological target: T2, 4H40-bH; assay: two-hybrid library CCNG1;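 also: natural log of median RNA to DNA barcode read ratio; higher means stronger binding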
T2 chain: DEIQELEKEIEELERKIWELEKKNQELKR

4H477-bH = biological target: T3, 4H477-bH; assay: two-hybrid library CCNG1;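 also: natural log of median RNA to DNA barcode read ratio; higher means stronger binding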
T3 chain: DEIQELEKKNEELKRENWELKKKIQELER

4H492-bH = biological target: T4, 4H492-bH; assay: two-hybrid library CCNG1;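 also: natural log of median RNA to DNA barcode read ratio; higher means stronger binding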
T4 chain: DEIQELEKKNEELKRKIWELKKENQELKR

4H741-bH = biological target: T5, 4H741-bH; assay: two-hybrid library CCNG1;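 also: natural log of median RNA to DNA barcode read ratio; higher means stronger binding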
T5 chain: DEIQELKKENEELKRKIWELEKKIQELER

4H319-bH = biological target: T6, 4H319-bH; assay: two-hybrid library CCNG1;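 also: natural log of median RNA to DNA barcode read ratio; higher means stronger binding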
T6 chain: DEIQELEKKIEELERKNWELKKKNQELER

4H3277-bH = biological target: T7, 4H3277-bH; assay: two-hybrid library CCNG1
T7 chain: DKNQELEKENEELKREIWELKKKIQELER

O8 = biological target: T8, O8; assay: two-hybrid library CCNG1
T8 chain: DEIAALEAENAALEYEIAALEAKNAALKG

O9 [1] = biological target: T9, O9; assay: two-hybrid library CCNG1
T9 chain: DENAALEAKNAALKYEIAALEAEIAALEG

O9 [2] = biological target: T10, O9; assay: two-hybrid library CC0; conditions: mean of both orientations
T10 chain: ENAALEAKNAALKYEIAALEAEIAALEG

P7 = biological target: T11, P7; assay: two-hybrid library CC1
T11 chain: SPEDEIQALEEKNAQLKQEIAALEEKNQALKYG

P7mS = biological target: T12, P7mS; assay: two-hybrid library CC1; conditions: mean of both orientations
T12 chain: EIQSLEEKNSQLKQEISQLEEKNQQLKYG

P8 = biological target: T13, P8; assay: two-hybrid library CC1; conditions: mean of both orientations
T13 chain: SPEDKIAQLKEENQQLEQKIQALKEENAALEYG

P8mS = biological target: T14, P8mS; assay: two-hybrid library CC1; conditions: mean of both orientations
T14 chain: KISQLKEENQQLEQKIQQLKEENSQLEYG

P9 = biological target: T15, P9; assay: two-hybrid library CC1; conditions: mean of both orientations
T15 chain: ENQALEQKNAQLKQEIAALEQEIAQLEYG

APC3645-AA = biological target: T16, APC3645-AA; assay: two-hybrid library CCmax
T16 chain: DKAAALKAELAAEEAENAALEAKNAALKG

APC4011-AA = biological target: T17, APC4011-AA; assay: two-hybrid library CCmax; conditions: mean of both orientations
T17 chain: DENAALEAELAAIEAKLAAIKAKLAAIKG

APC4264-AA = biological target: T18, APC4264-AA; assay: two-hybrid library CCmax; conditions: mean of both orientations
T18 chain: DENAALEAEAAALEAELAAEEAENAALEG

APC4436-AA = biological target: T19, APC4436-AA; assay: two-hybrid library CCmax; conditions: mean of both orientations
T19 chain: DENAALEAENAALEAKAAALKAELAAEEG

APC5383-AA = biological target: T20, APC5383-AA; assay: two-hybrid library CCmax; conditions: mean of both orientations
T20 chain: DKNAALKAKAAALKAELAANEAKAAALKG

APC6108-AA = biological target: T21, APC6108-AA; assay: two-hybrid library CCmax; conditions: mean of both orientations
T21 chain: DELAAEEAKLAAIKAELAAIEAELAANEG

APC7099-AA = biological target: T22, APC7099-AA; assay: two-hybrid library CCmax; conditions: mean of both orientations
T22 chain: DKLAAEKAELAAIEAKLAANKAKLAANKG

APC8191-AA = biological target: T23, APC8191-AA; assay: two-hybrid library CCmax; conditions: mean of both orientations
T23 chain: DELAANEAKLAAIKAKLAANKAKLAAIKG

APC8910-AA = biological target: T24, APC8910-AA; assay: two-hybrid library CCmax; conditions: mean of both orientations
T24 chain: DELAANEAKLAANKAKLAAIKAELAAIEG

APC9096-AA = biological target: T25, APC9096-AA; assay: two-hybrid library CCmax; conditions: mean of both orientations
T25 chain: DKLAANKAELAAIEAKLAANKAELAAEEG

APC9319-AA = biological target: T26, APC9319-AA; assay: two-hybrid library CCmax; conditions: mean of both orientations
T26 chain: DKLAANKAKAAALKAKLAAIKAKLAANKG

4H3297-bA = biological target: T27, 4H3297-bA; assay: two-hybrid library CCNG1
T27 chain: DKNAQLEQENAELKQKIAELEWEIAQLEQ

4H3364-bA = biological target: T28, 4H3364-bA; assay: two-hybrid library CCNG1
T28 chain: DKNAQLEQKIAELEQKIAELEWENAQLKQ

4H3381-bA = biological target: T29, 4H3381-bA; assay: two-hybrid library CCNG1
T29 chain: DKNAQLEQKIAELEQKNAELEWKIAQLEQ

4H349-bA = biological target: T30, 4H349-bA; assay: two-hybrid library CCNG1
T30 chain: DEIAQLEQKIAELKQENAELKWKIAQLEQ

4H56-bA = biological target: T31, 4H56-bA; assay: two-hybrid library CCNG1
T31 chain: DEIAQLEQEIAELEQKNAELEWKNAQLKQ

4H730-bA = biological target: T32, 4H730-bA; assay: two-hybrid library CCNG1
T32 chain: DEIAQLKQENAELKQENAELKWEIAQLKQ

4H796-bA = biological target: T33, 4H796-bA; assay: two-hybrid library CCNG1
T33 chain: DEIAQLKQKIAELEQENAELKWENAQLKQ

4H932-bA = biological target: T34, 4H932-bA; assay: two-hybrid library CCNG1
T34 chain: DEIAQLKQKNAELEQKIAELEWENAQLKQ

4H949-bA = biological target: T35, 4H949-bA; assay: two-hybrid library CCNG1
T35 chain: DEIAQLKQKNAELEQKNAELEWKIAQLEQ

4H338-bH = biological target: T36, 4H338-bH; assay: two-hybrid library CCNG1
T36 chain: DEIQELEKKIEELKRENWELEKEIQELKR

4H3427-bH = biological target: T37, 4H3427-bH; assay: two-hybrid library CCNG1
T37 chain: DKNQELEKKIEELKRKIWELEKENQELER

4H3782-bH = biological target: T38, 4H3782-bH; assay: two-hybrid library CCNG1
T38 chain: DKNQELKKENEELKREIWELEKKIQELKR

4H3855-bH = biological target: T39, 4H3855-bH; assay: two-hybrid library CCNG1
T39 chain: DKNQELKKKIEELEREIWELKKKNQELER

4H3926-bA = biological target: T40, 4H3926-bA; assay: two-hybrid library CCNG1
T40 chain: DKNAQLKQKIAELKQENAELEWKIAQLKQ

4H4001-bH = biological target: T41, 4H4001-bH; assay: two-hybrid library CCNG1
T41 chain: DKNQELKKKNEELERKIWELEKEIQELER

4H454-bH = biological target: T42, 4H454-bH; assay: two-hybrid library CCNG1
T42 chain: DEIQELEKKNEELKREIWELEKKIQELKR

4H568-bH = biological target: T43, 4H568-bH; assay: two-hybrid library CCNG1
T43 chain: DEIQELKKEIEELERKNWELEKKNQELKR

4H607-bH = biological target: T44, 4H607-bH; assay: two-hybrid library CCNG1
T44 chain: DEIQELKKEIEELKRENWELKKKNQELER

4H687-bH = biological target: T45, 4H687-bH; assay: two-hybrid library CCNG1
T45 chain: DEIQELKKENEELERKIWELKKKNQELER

4H717-bH = biological target: T46, 4H717-bH; assay: two-hybrid library CCNG1
T46 chain: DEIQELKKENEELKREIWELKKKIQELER

4H72-bH = biological target: T47, 4H72-bH; assay: two-hybrid library CCNG1
T47 chain: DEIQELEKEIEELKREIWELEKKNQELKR

4H754-bH = biological target: T48, 4H754-bH; assay: two-hybrid library CCNG1
T48 chain: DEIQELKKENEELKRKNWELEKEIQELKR

4H797-bH = biological target: T49, 4H797-bH; assay: two-hybrid library CCNG1
T49 chain: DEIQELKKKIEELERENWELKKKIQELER

4H883-bH = biological target: T50, 4H883-bH; assay: two-hybrid library CCNG1
T50 chain: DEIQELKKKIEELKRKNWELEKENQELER

4H908-bH = biological target: T51, 4H908-bH; assay: two-hybrid library CCNG1
T51 chain: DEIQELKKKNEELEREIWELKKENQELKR

4H918-bH = biological target: T52, 4H918-bH; assay: two-hybrid library CCNG1
T52 chain: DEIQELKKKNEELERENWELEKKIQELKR

4H953-bH = biological target: T53, 4H953-bH; assay: two-hybrid library CCNG1
T53 chain: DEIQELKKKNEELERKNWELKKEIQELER

4H967-bH = biological target: T54, 4H967-bH; assay: two-hybrid library CCNG1
T54 chain: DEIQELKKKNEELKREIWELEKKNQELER

4H348-bN = biological target: T55, 4H348-bN; assay: two-hybrid library CCNG1
T55 chain: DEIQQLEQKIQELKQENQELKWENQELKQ

4H40-bN = biological target: T56, 4H40-bN; assay: two-hybrid library CCNG1
T56 chain: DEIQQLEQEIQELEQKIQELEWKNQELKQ

4H477-bN = biological target: T57, 4H477-bN; assay: two-hybrid library CCNG1
T57 chain: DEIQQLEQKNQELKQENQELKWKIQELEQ

4H492-bN = biological target: T58, 4H492-bN; assay: two-hybrid library CCNG1
T58 chain: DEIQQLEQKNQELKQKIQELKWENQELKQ

4H741-bN = biological target: T59, 4H741-bN; assay: two-hybrid library CCNG1
T59 chain: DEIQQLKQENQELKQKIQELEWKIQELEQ

B1: 4H348-bH (peptide)
chain: DEIQELEKKIEELKRENWELKKENQELKR
- interaction score (4H348-bH): 0.666
- interaction score (4H40-bH): -0.14
- interaction score (4H477-bH): 0.107
- interaction score (4H492-bH): -0.683
- interaction score (4H741-bH): 1.04

B2: 4H319-bH (peptide)
chain: DEIQELEKKIEELERKNWELKKKNQELER
- interaction score (4H319-bH): 1.04
- interaction score (4H3277-bH): -0.168
- interaction score (4H348-bH): 0.143
- interaction score (4H40-bH): -2.01
- interaction score (4H477-bH): -0.71
- interaction score (4H492-bH): -0.172
- interaction score (4H741-bH): 0.321

B3: O8 (peptide)
chain: DEIAALEAENAALEYEIAALEAKNAALKG
- interaction score (O8): -2.07
- interaction score (O9 [1]): -1.9

B4: O9 (peptide)
chain: ENAALEAKNAALKYEIAALEAEIAALEG
- interaction score (O9 [2]): -2.72

B5: P7 (peptide)
chain: SPEDEIQALEEKNAQLKQEIAALEEKNQALKYG
- interaction score (P7): -2.29
- interaction score (P7mS): -2.52
- interaction score (P8): 0.391
- interaction score (P8mS): 0.223
- interaction score (P9): -2.07

B6: APC3645-AA (peptide)
chain: DKAAALKAELAAEEAENAALEAKNAALKG
- interaction score (APC3645-AA): -1.12
- interaction score (APC4011-AA): -1.34
- interaction score (APC4264-AA): -1.56
- interaction score (APC4436-AA): -2.1
- interaction score (APC5383-AA): -1.51
- interaction score (APC6108-AA): -1.68
- interaction score (APC7099-AA): -1.63
- interaction score (APC8191-AA): -1.7
- interaction score (APC8910-AA): -1.79
- interaction score (APC9096-AA): -1.71
- interaction score (APC9319-AA): -1.55

B7: 4H3297-bA (peptide)
chain: DKNAQLEQENAELKQKIAELEWEIAQLEQ
- interaction score (4H3297-bA): 1.19
- interaction score (4H3364-bA): -0.887
- interaction score (4H3381-bA): -0.995
- interaction score (4H349-bA): -1.15
- interaction score (4H56-bA): -0.874
- interaction score (4H730-bA): -0.992
- interaction score (4H796-bA): -1.18
- interaction score (4H932-bA): -0.454
- interaction score (4H949-bA): -0.949

B8: 4H338-bH (peptide)
chain: DEIQELEKKIEELKRENWELEKEIQELKR
- interaction score (4H338-bH): 1.76
- interaction score (4H3427-bH): 0.373
- interaction score (4H3782-bH): -0.321
- interaction score (4H3855-bH): 0.141
- interaction score (4H3926-bA): 1.81
- interaction score (4H4001-bH): 0.346
- interaction score (4H454-bH): 1.38
- interaction score (4H568-bH): 0.785
- interaction score (4H607-bH): 0.393
- interaction score (4H687-bH): -0.366
- interaction score (4H717-bH): 0.186
- interaction score (4H72-bH): -1.44
- interaction score (4H754-bH): 0.366
- interaction score (4H797-bH): -0.318
- interaction score (4H883-bH): 0.0489
- interaction score (4H908-bH): -3.02
- interaction score (4H918-bH): -0.137
- interaction score (4H953-bH): 1.25
- interaction score (4H967-bH): 0.908

B9: 4H348-bN (peptide)
chain: DEIQQLEQKIQELKQENQELKWENQELKQ
- interaction score (4H348-bN): -1.05
- interaction score (4H40-bN): -1
- interaction score (4H477-bN): -1.82
- interaction score (4H492-bN): 0.214
- interaction score (4H741-bN): -0.495
- interaction score (4H754-bH): -0.689
